# Source: patent US9012420B2, “Aptamer for chymase, and use thereof” (Ribomic Inc., priority 2009, dated 2015)
# Oligonucleotides are written 5' to 3', each unit as a sugar letter and its base; * is a phosphorothioate linkage, no mark a phosphodiester; rarer units and linkages stand in square brackets, end groups in braces. Plain capitals give the bases only. r = 2'-OH (RNA); f = 2'-fluoro
# T1: chymase (recombinant) (UniProt P23946 P23946:22-247)
# T1 sequence: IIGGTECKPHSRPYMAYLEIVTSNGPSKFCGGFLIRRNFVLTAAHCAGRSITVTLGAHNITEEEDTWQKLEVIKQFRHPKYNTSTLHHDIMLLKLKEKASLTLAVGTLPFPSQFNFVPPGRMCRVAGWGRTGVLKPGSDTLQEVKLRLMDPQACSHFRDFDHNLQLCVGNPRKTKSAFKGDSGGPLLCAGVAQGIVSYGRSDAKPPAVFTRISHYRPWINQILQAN
# T2: chymase (Homo sapiens, UniProt P23946)
# T2 sequence (P23946 22-247): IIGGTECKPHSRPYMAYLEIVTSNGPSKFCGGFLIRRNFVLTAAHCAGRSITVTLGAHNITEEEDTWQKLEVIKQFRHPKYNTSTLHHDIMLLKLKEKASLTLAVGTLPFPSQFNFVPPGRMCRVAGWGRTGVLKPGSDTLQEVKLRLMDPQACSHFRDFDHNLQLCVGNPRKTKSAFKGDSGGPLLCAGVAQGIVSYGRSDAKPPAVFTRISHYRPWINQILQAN
# Biological target: T1, chymase (recombinant)
# Experiment: inhibition; SPR ++
# Conditions: tags: SIGMA, expressed in yeast
# Protocol: (§1) Here, Suc is a protecting succinyl group, and MCA is a 4-methylcoumaryl-7-amide group; upon cleavage of the C-terminal side of phenylalanine, AMC (7-amino-4-methyl-coumarine) is released. By detecting the fluorescence of this AMC, the enzyme activity of chymase can be determined. The assay was performed using a 96-well plate (F16 Black Maxisorp Fluoronunc, manufactured by Nunc), with a reaction mixture volume of 100 μL, in solution C as a buffer solution. First, each nucleic acid was serially diluted to 0.0027-2 μM concentrations in solution C to obtain 50 μL solutions. After 10 μL of the 1 mM substrate prepared in solution C was added thereto, the plate was set to the microplate reader SpectraMax190 (manufactured by Molecular Devices Corporation), and incubated at 37° C. for 5 minutes. Separately, 0.05 μg (or 0.005 μg) of chymase (recombinant, manufactured by SIGMA) was diluted in solution C to obtain a 40 μL chymase solution, and incubated at 37° C. for 5 minutes. The chymase solution was added to the mixture of the nucleic acid and substrate to initiate an enzyme reaction. The final chymase concentration in the reaction mixture was 16.7 nM (or 1.67 nM), the final substrate concentration being 100 μM. The plate containing the reaction mixture was set to the microplate reader SpectraMax190 (manufactured by Molecular Devices Corporation), and examined for time-dependent changes in the fluorescence intensity at 37° C. for 5 minutes (or 30 minutes) (excitation wavelength 380 nm, detection wavelength 460 nm). A linear approximation of the increase in the fluorescence of the AMC released from the substrate by chymase activity was generated, and its slope was taken as the initial velocity […]. For control, samples were treated and analyzed in the same manner in two cases: use of a 30N or 40N (a nucleotide of 30 or 40 consecutive bases represented by N; N is A, G, C or T) nucleic acid pool (negative control), and use of chymostatin, a known chymotrypsin-like serine protease inhibitor (positive control). Taking the initial reaction velocity without the nucleic acid and inhibitor (V_0) as a 100% enzyme activity, the inhibitory rate of each test substance was calculated using the following equation: […]
# The chymase inhibitory activity was measured in the same manner as in Example 3.
row,Molecule,IC50 [nM]
1,"GGGUUAGAUAGAUUUAAAAACCC (ssRNA, G(M)G(M)G(M)U(F)U(F)AG(M)A(M)U(F)A(M)GAU(F)U(F)U(F)A(M)A(M)A(M)A(M)A(M)C(F)C(F)C(F) (M=2'-OMe, F=2'-F)) [61(1)]",78
2,"GGGUUAGAUAGAGUUAAAAACCC (ssRNA, idT-G(M)G(M)G(M)U(F)U(F)AGAU(F)A(M)GAG(M)U(F)U(F)A(M)A(M)A(M)A(M)A(M)C(F)C(F)C(F)-idT (M=2'-OMe, F=2'-F)) [56(32)]",17
3,"GGGUUAGAUAGAGTUAAAAACCC (mixed, idT-G(M)G(M)G(M)U(F)U(F)AG(M)A(M)U(F)A(M)GAG(M)tU(F)A(M)A(M)A(M)A(M)A(M)C(F)C(F)C(F)-idT (lower case DNA)) [SEQ 71]",28
4,"GGGUUAGAUAGAGUUAAAAACCC (ssRNA, idT-G(M)G(M)G(M)U(F)U(F)AG(M)AU(F)A(M)GAG(M)U(F)U(F)A(M)A(M)A(M)A(M)A(M)C(F)C(F)C(F)-idT (M=2'-OMe, F=2'-F)) [56(31)]",23
5,"GGGTTAGAUAGAGUUAAAAACCC (mixed, idT-G(M)G(M)G(M)ttAG(M)A(M)U(F)A(M)GAG(M)U(F)U(F)A(M)A(M)A(M)A(M)A(M)C(F)C(F)C(F)-idT (lower case DNA)) [SEQ 70]",27
6,"GGGUUAGAUAGAGUUAAAAACCC (ssRNA, idT-G(M)G(M)G(M)U(F)U(F)sAsGAU(F)A(M)GAG(M)U(F)U(F)A(M)A(M)A(M)A(M)A(M)C(F)C(F)C(F)-idT (M=2'-OMe, F=2'-F, s=PS)) [56(38)]",19
7,"GGGTTAGAUAGAGTUAAAAACCC (mixed, idT-G(M)G(M)G(M)ttAG(M)aU(F)A(M)GAG(M)tU(F)A(M)A(M)A(M)A(M)A(M)ccc-idT (lower case DNA)) [72(1)]",13
8,"GGGTTAGAUAGAGTUAAAAACCC (mixed, idT-G(M)G(M)G(M)ttAG(M)A(M)U(F)A(M)GAG(M)tU(F)A(M)A(M)A(M)A(M)A(M)ccc-idT (lower case DNA)) [SEQ 72]",20

# Biological target: T2, chymase
# Experiment: Surface plasmon resonance (Biacore T100), aptamer immobilized on SA chip, chymase injected as analyte
# Format: binding
# Conditions: Table 1; about 1000 RU nucleic acid immobilized, chymase 0.2 μM analyte, running buffer solution A; compared with 40N
# Protocol: Binding strength is measured using Biacore T100 (manufactured by GE Healthcare). In a method of measurement, the aptamer is first immobilized onto a sensor chip, the amount immobilized being about 1000 RU. 20 μL of a chymase solution for analyte, prepared at 0.2 μM, is injected, and the binding of chymase to the aptamer is detected. An RNA comprising a random nucleotide sequence of 30 or 40 nucleotides is used as a negative control.
# The binding activities against chymase of the nucleic acids shown by SEQ ID NO: 4-20 and 22-34 were determined by the surface plasmon resonance method using Biacore T100 (manufactured by GE Healthcare). The sensor chip used was the SA chip, which had streptavidin immobilized thereon. Bound thereto was about 1500 RU of a 16-nucleotide Poly dT with biotin bound to the 5′ end thereof. […] 20 μL of chymase for analyte, prepared at 0.2 μM, was injected. Solution A was used as a running buffer.
# The binding activities against chymase of the nucleic acids shown by SEQ ID NO: 38-48 were evaluated by the surface plasmon resonance method. In the evaluations for SEQ ID NO: 38-48, measurements were taken in the same manner as Example 1. Solution C was used as a running buffer.
row,Molecule,Binding activity as determined using Biacore
1,GGGACGGUAGGAAUUCGUCCCUCUUGUCUAUUUUGCAGAUAGACUUAAAGCAAACAUAGAAGAGCGGCCGC (nucleic acid) rGrGrGrAfCrGrGfUrArGrGrArAfUfUfCrGfUfCfCfCfUfCfUfUrGfUfCfUrAfUfUfUfUrGfCrArGrAfUrArGrAfCfUfUrArArArGfCrArArAfCrAfUrArGrArArGrArGfCrGrGfCfCrGfC,higher binding activity than 40N
2,GGGACGGUAGGAAUUCGUCCCUCAUGUCUAUUUUGCAGAUAGACUUAAAGCAAACAUAGAAGAGCGGCCGC (nucleic acid) rGrGrGrAfCrGrGfUrArGrGrArAfUfUfCrGfUfCfCfCfUfCrAfUrGfUfCfUrAfUfUfUfUrGfCrArGrAfUrArGrAfCfUfUrArArArGfCrArArAfCrAfUrArGrArArGrArGfCrGrGfCfCrGfC,equivalent binding activity compared with 40N
3,GGGACGGUAGGAAUUCGUCCAUUCUACAGAUAGAGAUAAAGUAGAAUUUAACAAAACAUAGAAGAGCGGCCGC (nucleic acid) rGrGrGrAfCrGrGfUrArGrGrArAfUfUfCrGfUfCfCrAfUfUfCfUrAfCrArGrAfUrArGrArGrAfUrArArArGfUrArGrArAfUfUfUrArAfCrArArArAfCrAfUrArGrArArGrArGfCrGrGfCfCrGfC,higher binding activity than 40N
4,GGGACGGUAGGAAUUCGUCCUCAUGUCUAUUUUGCAGAUAGACUUAAAGCAAACAUAGAAGAGCGGCCGC (nucleic acid) rGrGrGrAfCrGrGfUrArGrGrArAfUfUfCrGfUfCfCfUfCrAfUrGfUfCfUrAfUfUfUfUrGfCrArGrAfUrArGrAfCfUfUrArArArGfCrArArAfCrAfUrArGrArArGrArGfCrGrGfCfCrGfC,equivalent binding activity compared with 40N
5,"GGGACGGUAGGAAUUCUGCCGCAACCCAAUGAAAACGAAGAUAGAGAUAAAUCGAACAUAGAAGAGCGGCCGC (nucleic acid, aptamer) rGrGrGrAfCrGrGfUrArGrGrArAfUfUfCfUrGfCfCrGfCrArAfCfCfCrArAfUrGrArArArAfCrGrArArGrAfUrArGrArGrAfUrArArAfUfCrGrArAfCrAfUrArGrArArGrArGfCrGrGfCfCrGfC",equivalent binding activity compared with 40N
6,"GGGACGGUAGGAAUUCCGCAACCAUCCCGUAACUAUGGUUAGAUAGAGUUAAAAACCAUAGAAGAGCGGCCGC (nucleic acid, chemistry not given here) GGGACGGUAGGAAUUCCGCAACCAUCCCGUAACUAUGGUUAGAUAGAGUUAAAAACCAUAGAAGAGCGGCCGC",higher binding activity than 40N
7,"GGGACGGUAGGAAUUCGUCGAUUCUACAGAUAGAGAUAAAGUAGAAUUUAACAAAACAUAGAAGAGCGGCCGC (nucleic acid, aptamer) rGrGrGrAfCrGrGfUrArGrGrArAfUfUfCrGfUfCrGrAfUfUfCfUrAfCrArGrAfUrArGrArGrAfUrArArArGfUrArGrArAfUfUfUrArAfCrArArArAfCrAfUrArGrArArGrArGfCrGrGfCfCrGfC",higher binding activity than 40N
8,"GGGACGGUAGGAAUUCAGCUGACUCCAAUGCACACGUAGAUAGAGUUAAAACGUUGCAUAGAAGAGCGGCCGC (nucleic acid, aptamer) rGrGrGrAfCrGrGfUrArGrGrArAfUfUfCrArGfCfUrGrAfCfUfCfCrArAfUrGfCrAfCrAfCrGfUrArGrAfUrArGrArGfUfUrArArArAfCrGfUfUrGfCrAfUrArGrArArGrArGfCrGrGfCfCrGfC",higher binding activity than 40N
9,"GGGACGGUAGGAAUUCUCGUUCCUGACAGCAUUUGAGAUAGAUUUAAACAAACGCACAUAGAAGAGCGGCCGC (nucleic acid, chemistry not given here) GGGACGGUAGGAAUUCUCGUUCCUGACAGCAUUUGAGAUAGAUUUAAACAAACGCACAUAGAAGAGCGGCCGC",higher binding activity than 40N

# Biological target: T1, chymase (recombinant)
# Experiment: inhibition; SPR ++ (Table 2)
# Conditions: tags: SIGMA, expressed in yeast
# Protocol: as §1
row,Molecule,IC50 [nM]
1,"SEQ 38 (ssRNA, 2'-F pyrimidines) RNA: GGGAGCAGGAGAGAGGUCAGAUGGAUAGAGUUAAGAUCUGGCUGGCGCAUUAGCCUAUGCGUGCUAGUGUGA",50
2,"SEQ 41 (ssRNA, 2'-F pyrimidines) RNA: GGGAGCAGGAGAGAGGUCAGAUGGUGAGAUAGAGUUAAACACCACAAUAGUAGCCUAUGCGUGCUAGUGUGA",60
3,"SEQ 44 (ssRNA, 2'-F pyrimidines) RNA: GGGAGCAGGAGAGAGGUCAGAUGUUAGACCAAAGCAUAGGAGAUAGAGUUAAACCUAUGCGUGCUAGUGUGA",49
4,"SEQ 48 (ssRNA, 2'-F pyrimidines) RNA: GGGAGCAGGAGAGAGGUCAGAUGUGAAGAUAGAGAUAAAUCACAUACAGUCGGCCUAUGCGUGCUAGUGUGA",95
5,"SEQ 42 (ssRNA, 2'-F pyrimidines) RNA: GGGAGCAGGAGAGAGGUCAGAUGCGUGAUCGUGCAAGGCGGAUAGAGUUAAGGCCUAUGCGUGCUAGUGUGA",124
6,"SEQ 43 (ssRNA, 2'-F pyrimidines) RNA: GGGAGCAGGAGAGAGGUCAGAUGAUGCCAAGAUAGAUUUAAAUGGCGUUUGGGCCUAUGCGUGCUAGUGUGA",81
7,"SEQ 46 (ssRNA, 2'-F pyrimidines) RNA: GGGAGCAGGAGAGAGGUCAGAUGGGACAGAUAGAGUUAAAGUCCGUUACGUGGCCUAUGCGUGCUAGUGUGA",38
8,"SEQ 47 (ssRNA, 2'-F pyrimidines) RNA: GGGAGCAGGAGAGAGGUCAGAUGGUGAUAGAUAGAGUUAAAAUCGCUGAAUGGCCUAUGCGUGCUAGUGUGA",58
9,"SEQ 40 (ssRNA, 2'-F pyrimidines) RNA: GGGAGCAGGAGAGAGGUCAGAUGAACGGAUAGAGCUAAGAGUUCGUCAGAGGGGCCUAUGCGUGCUAGUGUGA",140
10,"SEQ 45 (ssRNA, 2'-F pyrimidines) RNA: GGGAGCAGGAGAGAGGUCAGAUGGACCACCGAUGGGCAAGAUAGAGUUAAAUGCCUAUGCGUGCUAGUGUGA",74
